In patent publication US20220135656A1 (NIMA ACQUISITION, published 2022):
Numbering of substitutions follows the chain as printed. Several values for one entry are separate records, joined by “and”; a condition that tells them apart may be missing. Identical values can stand only once. Blank lines part the entries; values can stand above or below the binder they belong to. Ends that are not written are not given here. * marks the point of attachment. Biotin = O=C1N[C@H]2[C@H](CS[C@H]2CCCCC(=O)*)N1

What was measured:
peptide 43 (QQQQQQQQQQ) = target: T1, peptide 43 (QQQQQQQQQQ); test: peptide ELISA, biotinylated peptide captured on streptavidin
T1 peptide: Biotin-QQQQQQQQQQ

[1] = target: T2, peptide YPQPQLPYPQ (SEQ ID NO: 61); test: peptide ELISA; biotinylated crude peptide on streptavidin, mAb 0.5 µg/ml; value given for group B
T2 construct: Crude 10-mer of the peptide library; also called group B peptide
T2 peptide: Biotin-YPQPQLPYPQ

[2] = target: T3, peptide PFPPQQPYPQ (SEQ ID NO: 60); test: as above
T3 construct: Crude 10-mer of the peptide library; also called group B peptide
T3 peptide: Biotin-PFPPQQPYPQ

[3] = target: T4, peptide PFRPQQPYPQ (SEQ ID NO: 62); test: as above
T4 construct: Crude 10-mer of the peptide library; also called group B peptide
T4 peptide: Biotin-PFRPQQPYPQ

PWG-gliadin [4] = target: T5, PWG-gliadin (wheat); test: SPR, Biacore T200; Glutenin amine-coupled to the chip, antibody as analyte 3-243 nM; 1:1 binding fit; Chi2 16 RU2, U-value 2
T5 construct: also called Gluten; glutenin
Procedure: (§1) In this experiment, glutenin protein was coated through amine coupling method, the antibodies were flowed over the sensor chip as analytes. The experiment was carried out using the following protocol.
(§2) Coat glutenin onto the Series S Sensor Chip CM5 via primary amine groups using the following conditions: [0123] (1) Equilibrate: HBS-EP, flow rate 10 μl/min, 5 min; [0124] […] (3) Couple ligand: inject glutenin (15 μg/ml, 10 mM sodium acetate, pH 4.5), flow rate 10 μl/min, until ˜300 RU of glutenin is coated; [0126] (4) Deactivate excess reactive groups: inject ethanolamine, flow rate 10 μl/min, 7 min.
(§3) In this study, the binding affinities between glutenin and three monoclonal antibodies were determined. The experiment was carried out where glutenin was amine coupled to the sensor chip and antibodies were used as analytes. The result of is with good curve fitting and low U-values, and thus is reliable.

[5] = target: T6, peptide QPQLPYPQPQ (SEQ ID NO: 56); test: peptide ELISA; biotinylated crude peptide on streptavidin, mAb 0.5 µg/ml; value given for group A
T6 construct: Crude 10-mer of the peptide library; also called group A peptide
T6 peptide: Biotin-QPQLPYPQPQ

[6] = target: T7, peptide PQPQLPYPQP (SEQ ID NO: 51); test: as above
T7 construct: Crude 10-mer of the peptide library; also called group A peptide
T7 peptide: Biotin-PQPQLPYPQP

[7] = target: T8, peptide PQLPYPQPQL (SEQ ID NO: 57); test: as above
T8 construct: Crude 10-mer of the peptide library; also called group A peptide
T8 peptide: Biotin-PQLPYPQPQL

[8] = target: T9, peptide PQQPYPQSQP (SEQ ID NO: 58); test: as above
T9 construct: Crude 10-mer of the peptide library; also called group A peptide
T9 peptide: Biotin-PQQPYPQSQP

[9] = target: T10, peptide PPQQPYPQPQ (SEQ ID NO: 54); test: as above
T10 construct: Crude 10-mer of the peptide library; also called group A peptide
T10 peptide: Biotin-PPQQPYPQPQ

[10] = target: T11, peptide SPQQPYPQPQ (SEQ ID NO: 55); test: as above
T11 construct: Crude 10-mer of the peptide library; also called group A peptide
T11 peptide: Biotin-SPQQPYPQPQ

[11] = target: T12, peptide PPQLPYPQPP (SEQ ID NO: 59); test: as above
T12 construct: Crude 10-mer of the peptide library; also called group A peptide
T12 peptide: Biotin-PPQLPYPQPP

[12] = target: T13, peptide QLPYPQPQLP (SEQ ID NO: 52); test: as above
T13 construct: Crude 10-mer of the peptide library; also called group A peptide
T13 peptide: Biotin-QLPYPQPQLP

[13] = target: T14, peptide PQQPYPQPQP (SEQ ID NO: 50); test: as above
T14 construct: Crude 10-mer of the peptide library from antigen 1/2/3; also called group A peptide
T14 peptide: Biotin-PQQPYPQPQP

[14] = target: T15, peptide PQLPYPQPQP (SEQ ID NO: 53); test: as above
T15 construct: Crude 10-mer of the peptide library; also called group A peptide
T15 peptide: Biotin-PQLPYPQPQP

PWG-gliadin [15] = target: T5, PWG-gliadin; test: SPR (Biacore T200), gliadin amine-coupled, antibody as analyte; 'as shown in the examples'
[16] = target: T2, peptide YPQPQLPYPQ (SEQ ID NO: 61); test: peptide ELISA; group B; the number is missing in the cell
[17] = target: T3, peptide PFPPQQPYPQ (SEQ ID NO: 60); test: as above
[18] = target: T4, peptide PFRPQQPYPQ (SEQ ID NO: 62); test: as above
PWG-gliadin [19] = target: T5, PWG-gliadin; test: SPR, Biacore T200; Glutenin amine-coupled to the chip, antibody as analyte 3-243 nM; 1:1 binding fit; Chi2 29.9 RU2, U-value 2
Procedure: as §1, §2, §3

binding result (peptide 43 (QQQQQQQQQQ)): no binding
OD450nm [1]: < 0.5
OD450nm [2]: < 0.5
OD450nm [3]: < 0.5
Kd (PWG-gliadin [4]): 30.6 nM
koff (PWG-gliadin [4]): 0.00225 s⁻¹
kon (PWG-gliadin [4]): 73600 M⁻¹ s⁻¹
OD450nm [5]: ~1
OD450nm [6]: ~1
OD450nm [7]: ~1
OD450nm [8]: ~1
OD450nm [9]: ~1
OD450nm [10]: ~1
OD450nm [11]: ~1
OD450nm [12]: ~1
OD450nm [13]: ~1
OD450nm [14]: ~1
Kd (PWG-gliadin [15]): < 50 nM and ~30 nM
B1: 14G11 monoclonal antibody (antibody, IgG1, V domains shown)
VH: QIQLVQSGPEMKKPGETVKIFCKASGYTLTDYSMHWVKQAPGKGLKWMGWINTETGEPTYADDFKGRCAFSLETSVSTAFLQINNLKNEDMGTYFCASSGAWFSYWGQGTLVTVSA
VL: DVLLTQTPLSLPVSLGDQASISCRSSQTIVQINGNTHLEWFLQKPGQSPKLLIYKVSNRFSGVPDRFSGSGSGTDFTLKISRVEAEDLGIYYCFQGSHVPFTFGSGTKLEIK
notes: also called 14G11 monoclonal Ab

binding result [16]: binds
binding result [17]: binds
binding result [18]: binds
Kd (PWG-gliadin [19]): 5.81 nM
koff (PWG-gliadin [19]): 0.000663 s⁻¹
kon (PWG-gliadin [19]): 114000 M⁻¹ s⁻¹
binding result (peptide 43 (QQQQQQQQQQ)): no binding
OD450nm [5]: ~2
OD450nm [6]: ~2
OD450nm [7]: ~2
OD450nm [8]: ~2
OD450nm [9]: ~2
OD450nm [10]: ~2
OD450nm [11]: ~2
OD450nm [12]: ~2
OD450nm [13]: ~2
OD450nm [14]: ~2
Kd (PWG-gliadin [15]): < 10 nM and 5 nM to 6 nM (2×)
B2: 13F6 monoclonal antibody (antibody, IgG2b, V domains shown)
VH: QIQLVQSGPELKKPGETVKISCKASGYTFTDYSMHWVRQAPGKGLKWMGWINTETGEPTYADDFKGRFAFSLETSASTAYLQINNLKNEDTATHFCAPSVAWFAYWGQGTLVTVST
VL: B1 VL with L4M, P12S, T28S, I32S, I90V
notes: also called 13F6 monoclonal Ab
